Experimental data as given in publication PMC4150764, “Structural and functional basis of transcriptional regulation by TetR family protein CprB from S. coelicolor A3(2)” (Nucleic Acids Research, 2014).

Assays:
CprB [1] = biological target: T1, CprB (Streptomyces coelicolor A3(2), UniProt Q7AKF2 1-215); test: EMSA; range given for scbR, kasOA, kasOB together; EMSA: 10 mM Tris-HCl pH 7.8, 50 mM KCl, 1 mM EDTA, 1 mM DTT, 5% glycerol, hemoglobin, poly(dI-dC), 20 C, ~1 nM DNA; ITC: 50 mM phosphate pH 7, 150 mM NaCl, 25 C; settings: protein: recombinant; chain copies: 4; label: 5'-32P; blunt
T1 sequence: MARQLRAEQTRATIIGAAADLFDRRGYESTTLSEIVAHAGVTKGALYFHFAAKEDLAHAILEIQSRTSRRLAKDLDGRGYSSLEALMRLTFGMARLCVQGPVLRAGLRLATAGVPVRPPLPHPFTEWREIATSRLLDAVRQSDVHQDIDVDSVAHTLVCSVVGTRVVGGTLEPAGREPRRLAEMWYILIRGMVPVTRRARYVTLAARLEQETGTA

CprB [2] = biological target: T1, CprB; test: EMSA; EMSA: 10 mM Tris-HCl pH 7.8, 50 mM KCl, 1 mM EDTA, 1 mM DTT, 5% glycerol, hemoglobin, poly(dI-dC), 20 C, ~1 nM DNA; ITC: 50 mM phosphate pH 7, 150 mM NaCl, 25 C; settings: protein: recombinant, chain copies: 4, blunt
CprB [3] = biological target: T1, CprB; test: ITC; n = 0.52 CS per CprB dimer, 25 C; EMSA: 10 mM Tris-HCl pH 7.8, 50 mM KCl, 1 mM EDTA, 1 mM DTT, 5% glycerol, hemoglobin, poly(dI-dC), 20 C, ~1 nM DNA; ITC: 50 mM phosphate pH 7, 150 mM NaCl, 25 C; settings: protein: recombinant; chain copies: 4; label: 5'-32P (EMSA); none (ITC, crystal); blunt
[4] = biological target: the molecule itself; test: crystal structure; CprB (6 mg/ml) co-crystallised with annealed 22-mer CS DNA, 1:1.2 (dimer of CprB:CS), hanging drop, 22°C, 0.2 M KCl, 0.02 M MgCl2, 0.05 M Tris-HCl pH 7.5, 10% PEG 4000; 3.25 Å
CprB [5] = biological target: T1, CprB; test: EMSA; about five-fold weaker than own upstream sequence; EMSA: 10 mM Tris-HCl pH 7.8, 50 mM KCl, 1 mM EDTA, 1 mM DTT, 5% glycerol, hemoglobin, poly(dI-dC), 20 C, ~1 nM DNA; ITC: 50 mM phosphate pH 7, 150 mM NaCl, 25 C; settings: protein: recombinant; chain copies: 4; label: 5'-32P; blunt, self-complementary
CprB S33A = biological target: T2, CprB S33A (Streptomyces coelicolor A3(2), UniProt Q7AKF2 1-215, S33A); test: EMSA; negligible effect; EMSA: 10 mM Tris-HCl pH 7.8, 50 mM KCl, 1 mM EDTA, 1 mM DTT, 5% glycerol, hemoglobin, poly(dI-dC), 20 C, ~1 nM DNA; ITC: 50 mM phosphate pH 7, 150 mM NaCl, 25 C; settings: protein: recombinant; chain copies: 2; label: 5'-32P (EMSA); none (ITC); blunt
T2 sequence: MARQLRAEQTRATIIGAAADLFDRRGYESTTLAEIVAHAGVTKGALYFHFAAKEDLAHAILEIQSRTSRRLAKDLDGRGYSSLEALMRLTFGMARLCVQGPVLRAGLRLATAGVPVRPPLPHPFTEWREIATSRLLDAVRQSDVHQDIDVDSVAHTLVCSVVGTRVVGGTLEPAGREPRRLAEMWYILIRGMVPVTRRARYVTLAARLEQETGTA

CprB K43A = biological target: T3, CprB K43A (Streptomyces coelicolor A3(2), UniProt Q7AKF2 1-215, K43A); test: as above; settings: protein: recombinant; chain copies: 2; label: 5'-32P (EMSA); none (ITC); blunt
T3 sequence: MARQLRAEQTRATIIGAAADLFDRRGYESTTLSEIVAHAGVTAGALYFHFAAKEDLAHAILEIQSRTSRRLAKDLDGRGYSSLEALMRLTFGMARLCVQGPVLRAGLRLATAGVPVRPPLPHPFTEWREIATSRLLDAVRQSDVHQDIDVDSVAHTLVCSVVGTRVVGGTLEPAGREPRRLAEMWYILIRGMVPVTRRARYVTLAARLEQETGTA

CprB [6] = biological target: T1, CprB; test: ITC; two-site model, Kd1, n = 0.26, 25 C; EMSA: 10 mM Tris-HCl pH 7.8, 50 mM KCl, 1 mM EDTA, 1 mM DTT, 5% glycerol, hemoglobin, poly(dI-dC), 20 C, ~1 nM DNA; ITC: 50 mM phosphate pH 7, 150 mM NaCl, 25 C; settings: protein: recombinant; chain copies: 4; label: 5'-32P (EMSA); none (ITC); blunt
CprB [7] = biological target: T1, CprB; test: EMSA; similar trend to OPB; EMSA: 10 mM Tris-HCl pH 7.8, 50 mM KCl, 1 mM EDTA, 1 mM DTT, 5% glycerol, hemoglobin, poly(dI-dC), 20 C, ~1 nM DNA; ITC: 50 mM phosphate pH 7, 150 mM NaCl, 25 C; settings: protein: recombinant; chain copies: 4; label: 5'-32P; blunt

B1: scbR (dsDNA)
DNA 1: GGAACCGGCAATGCGGTTTGTTCGATC
DNA 2: GATCGAACAAACCGCATTGCCGGTTCC
Kd (CprB [1]): ~1060 nM

B2: cprB1 59-mer (-58 to 0 of cprB-ATG) (dsDNA)
DNA 1: GCCGGGGGTAAAGGCAGGCGGCACGGTCTGTTGAGTTCCAGCCCGGGAGAATCCAGCCG
DNA 2: CGGCTGGATTCTCCCGGGCTGGAACTCAACAGACCGTGCCGCCTGCCTTTACCCCCGGC
Kd (CprB [2]; label: 5'-32P): ~400 nM

B3: CS 22-mer (dsDNA)
DNA 1: ACATACGGGACGCCCCGTTTAT
DNA 2: ATAAACGGGGCGTCCCGTATGT
Kd (CprB [2]; label: 5'-32P (EMSA), none (ITC, crystal)): ~374 nM
Kd (CprB [3]): 200 nM

B4: CprB (coelicolor pigment regulator protein B) from S. coelicolor A3(2) (natural protein, UniProt O66122 1-215, looked up)
chain: MARQLRAEQTRATIIGAAADLFDRRGYESTTLSEIVAHAGVTKGALYFHFAAKEDLAHAILEIQSRTSRRLAKDLDGRGYSSLEALMRLTFGMARLCVQGPVLRAGLRLATAGVPVRPPLPHPFTEWREIATSRLLDAVRQSDVHQDIDVDSVAHTLVCSVVGTRVVGGTLEPAGREPRRLAEMWYILIRGMVPVTRRARYVTLAARLEQETGTA
modifications: intermonomer disulfide linkage between cysteine residues at position 159
notes: CprB, TetR family gamma-butyrolactone receptor, Streptomyces coelicolor A3(2); the cprB gene encodes a 215 amino acid protein, expressed from pET26b(+); Crystallised with the 22-mer consensus DNA (CS); two homodimers in each asymmetric unit; No tag is mentioned; purification was by cation exchange; also called native CprB; source: E. coli BL21(DE3)pLysS, purified (SP Sepharose)
stoichiometry N [4]: 2

B5: kasOA (dsDNA)
DNA 1: ACAAACCGGTGTGCTGGTTTGTAAAGTCGTGG
DNA 2: CCACGACTTTACAAACCAGCACACCGGTTTGT
Kd (CprB [1]): ~1060 nM

B6: TetR(OS) 15-mer (dsDNA)
DNA 1: TCTATCATTGATAGG
DNA 2: CCTATCAATGATAGA
binding result (CprB [2]; label: 5'-32P): no binding

B7: kasOB (dsDNA)
DNA 1: CAAAACAGACTTGTTAGCTGTTT
DNA 2: AAACAGCTAACAAGTCTGTTTTG
Kd (CprB [1]): ~1060 nM

B8: QacR(OS) 28-mer (dsDNA)
DNA 1: CTTATAGACCGATCGATCGGTCTATAAG
DNA 2: CTTATAGACCGATCGATCGGTCTATAAG
Kd (CprB [5]): ~1500 nM

B9: OPB 27-mer (-47 to -21 of cprB-ATG) (dsDNA)
DNA 1: AGGCAGGCGGCACGGTCTGTTGAGTTC
DNA 2: GAACTCAACAGACCGTGCCGCCTGCCT
Kd (CprB [2]; label: 5'-32P (EMSA), none (ITC)): ~274 nM
binding result (CprB S33A): binds
binding result (CprB K43A): binds
Kd (CprB [6]): 330 nM

B10: cprA upstream 25-mer (-44 to -20 of cprA-ATG) (dsDNA)
DNA 1: AACAGGCACACGGTCTGTTGGTTCT
DNA 2: AGAACCAACAGACCGTGTGCCTGTT
binding result (CprB [7]): binds
